Test results taken from IntAct's records for PubMed 23376921.

B1: Transmembrane protein 59 (Homo sapiens), Q9BXS4 (parent)
chain: MAAPKGSLWVRTQLGLPPLLLLTMALAGGSGTASAEAFDSVLGDTASCHRACQLTYPLHTYPKEEELYACQRGCRLFSICQFVDDGIDLNRTKLECESACTEAYSQSDEQYACHLGCQNQLPFAELRQEQLMSLMPKMHLLFPLTLVRSFWSDMMDSAQSFITSSWTFYLQADDGKIVIFQSKPEIQYAPHLEQEPTNLRESSLSKMSYLQMRNSQAHRNFLEDGESDGFLRCLSLNSGWILTTTLVLSVMVLLWICCATVATAVEQYVPSEKLSIYGDLEFMNEQKLNRYPASSLVVVRSKTEDHEEAGPLPTKVNLAHSEI
partner: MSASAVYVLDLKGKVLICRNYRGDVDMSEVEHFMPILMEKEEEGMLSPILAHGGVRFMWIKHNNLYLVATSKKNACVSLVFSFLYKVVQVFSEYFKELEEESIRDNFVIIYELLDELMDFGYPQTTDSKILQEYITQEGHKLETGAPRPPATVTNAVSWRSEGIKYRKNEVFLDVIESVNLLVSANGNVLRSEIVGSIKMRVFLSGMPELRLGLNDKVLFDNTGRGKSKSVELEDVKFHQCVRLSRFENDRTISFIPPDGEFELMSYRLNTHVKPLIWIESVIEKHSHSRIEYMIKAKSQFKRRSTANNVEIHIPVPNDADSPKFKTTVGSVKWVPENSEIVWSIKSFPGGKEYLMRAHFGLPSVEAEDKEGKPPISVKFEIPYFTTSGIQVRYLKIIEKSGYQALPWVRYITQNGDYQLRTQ
B2: Transmembrane protein 59 (Homo sapiens), Q9BXS4 (parent)
chain: B1 chain

Variants of: B1
Details: with ap1m1_human AP1M1, Q9BXS5

| Variant | effect of a mutation on the interaction |
| --- | --- |
| Y268A;E272A;Y277A;L280A | disrupting interaction |

Variants of: B2
Details: with ATG16L1, Q676U5
ATG16L1, Q676U5, sequence (Q676U5 whole entry): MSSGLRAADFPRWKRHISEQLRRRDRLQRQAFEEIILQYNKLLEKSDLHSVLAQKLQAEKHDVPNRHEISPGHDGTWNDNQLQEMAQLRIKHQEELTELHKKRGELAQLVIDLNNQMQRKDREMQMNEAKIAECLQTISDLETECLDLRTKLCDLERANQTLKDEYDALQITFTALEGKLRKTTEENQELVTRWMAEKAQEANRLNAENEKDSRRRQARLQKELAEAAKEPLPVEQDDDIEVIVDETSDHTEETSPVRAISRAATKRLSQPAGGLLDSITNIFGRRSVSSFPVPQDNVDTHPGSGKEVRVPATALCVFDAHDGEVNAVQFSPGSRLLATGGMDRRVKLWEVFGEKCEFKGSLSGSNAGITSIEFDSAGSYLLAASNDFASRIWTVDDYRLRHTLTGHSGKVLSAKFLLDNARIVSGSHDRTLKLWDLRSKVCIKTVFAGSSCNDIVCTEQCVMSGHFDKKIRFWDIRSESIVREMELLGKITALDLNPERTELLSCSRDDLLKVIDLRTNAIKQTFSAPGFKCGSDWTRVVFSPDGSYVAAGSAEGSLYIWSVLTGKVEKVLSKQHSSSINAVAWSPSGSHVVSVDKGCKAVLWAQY

| Variant | effect of a mutation on the interaction |
| --- | --- |
| Y277A;L280A | disrupting interaction |

Variants of: B2
Details: with ATG16L1, Q676U5
Remark: another data set of the same source

| Variant | effect of a mutation on the interaction |
| --- | --- |
| Y268A;E272A;Y277A;L280A | disrupting interaction |

Variants of: B2
Details: with ATG16L1, Q676U5
Remark: another data set of the same source

| Variant | effect of a mutation on the interaction |
| --- | --- |
| Y268A;E272A;Y277A;L280A | disrupting interaction |

Variants of: B2
Details: with ATG16L1, Q676U5
Remark: another data set of the same source

| Variant | effect of a mutation on the interaction |
| --- | --- |
| Y268A;E272A;Y277A;L280A | disrupting interaction |

Variants of: B2
Details: with ATG16L1, Q676U5
Remark: another data set of the same source

| Variant | effect of a mutation on the interaction |
| --- | --- |
| Y268A;E272A;Y277A;L280A | disrupting interaction |

Variants of: B2
Details: with ATG16L1, Q676U5
Remark: another data set of the same source

| Variant | effect of a mutation on the interaction |
| --- | --- |
| Y268A;E272A;Y277A;L280A | disrupting interaction |

Variants of: B2
Details: with ap2m1_human AP2M1, Q96CW1
ap2m1_human AP2M1, Q96CW1, sequence (Q96CW1 whole entry): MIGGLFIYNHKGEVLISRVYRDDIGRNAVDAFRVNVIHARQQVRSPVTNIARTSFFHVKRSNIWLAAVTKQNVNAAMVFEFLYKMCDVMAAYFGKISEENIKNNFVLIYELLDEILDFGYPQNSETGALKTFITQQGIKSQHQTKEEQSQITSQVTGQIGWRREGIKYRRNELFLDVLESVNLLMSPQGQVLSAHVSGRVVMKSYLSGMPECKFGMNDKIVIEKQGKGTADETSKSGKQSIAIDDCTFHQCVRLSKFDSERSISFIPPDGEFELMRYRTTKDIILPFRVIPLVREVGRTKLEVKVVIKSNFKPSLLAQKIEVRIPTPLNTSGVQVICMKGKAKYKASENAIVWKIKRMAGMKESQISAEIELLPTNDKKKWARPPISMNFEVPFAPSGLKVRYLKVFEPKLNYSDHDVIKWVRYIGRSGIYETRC

| Variant | effect of a mutation on the interaction |
| --- | --- |
| Y268A;E272A;Y277A;L280A | disrupting interaction |

Variants of: B2
Details: with mlp3a_human MAP1LC3A

| Variant | effect of a mutation on the interaction |
| --- | --- |
| Y268A;E272A;Y277A;L280A | disrupting interaction |
